This passage reports Kd results from article PMC9127371, “Assembly of nuclear dimers of PI3K regulatory subunits is regulated by the Cdc42-activated tyrosine kinase ACK” (The Journal of Biological Chemistry, 2022).

Square brackets hold non-standard residues; d marks the D form. Ends that are not written are not given here. * marks the point of attachment. 5FAM = O=C1OC2(c3ccc(O)cc3Oc3cc(O)ccc32)c2ccc(C(=O)*)cc21; pY = N[C@@H](Cc1ccc(OP(=O)(O)O)cc1)C(=O)O

What all share (experiment): fluorescence polarisation; SH2 domain titrated into 5-FAM-labelled peptide (20 nM CD28, YSLV, pYSLV; 40 nM YSLM, pYSLM), 298 K, 96-well plates, single site binding isotherm
Holding throughout (conditions): both partners purified

Test [1] has as its target T1, p85α nSH2 (325–430) (human, UniProt P27986 325-430).
T1 construct: PI3K regulatory subunit p85α, human, N-terminal SH2 domain, residues 325-430; also called nSH2 domain of p85α; WT nSH2 domain of p85α; source: E. coli, purified (glutathione-agarose, HRV 3C cleavage, S75 size exclusion)

For test [2], the target named is T2, p85α cSH2 (614–720) (human, UniProt P27986 614-720).
T2 construct: PI3K regulatory subunit p85α, human, C-terminal SH2 domain, residues 614-720; also called cSH2 domain of p85α; source: E. coli, purified (glutathione-agarose, HRV 3C cleavage, S75 size exclusion)
T2 sequence (P27986 614-720): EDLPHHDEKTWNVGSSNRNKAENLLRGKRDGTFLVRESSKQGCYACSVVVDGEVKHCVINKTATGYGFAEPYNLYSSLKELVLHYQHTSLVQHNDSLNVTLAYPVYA

Test [3] deals with T3, p85α nSH2 R358M (human, UniProt P27986 325-430, R358M).
T3 construct: PI3K regulatory subunit p85α, human, N-terminal SH2 domain, residues 325-430, with R358M; also called R358M variant; R358M SH2–null mutant; source: E. coli, purified
T3 sequence (P27986 325-430 R358M): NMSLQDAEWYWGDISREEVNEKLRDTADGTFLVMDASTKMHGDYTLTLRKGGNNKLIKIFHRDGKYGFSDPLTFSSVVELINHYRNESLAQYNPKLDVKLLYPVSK

The target of test [4] is T4, p85β nSH2 (312–425) (mouse, UniProt O08908 312-425).
T4 construct: PI3K regulatory subunit p85β, mouse, N-terminal SH2 domain, residues 312-425; also called nSH2 domain of p85β; WT nSH2 domain of p85β; source: E. coli, purified (Ni-NTA, HRV 3C cleavage, size exclusion); not shown: His6, N-terminal, cleaved; MBP, N-terminal, cleaved
T4 sequence (O08908 312-425): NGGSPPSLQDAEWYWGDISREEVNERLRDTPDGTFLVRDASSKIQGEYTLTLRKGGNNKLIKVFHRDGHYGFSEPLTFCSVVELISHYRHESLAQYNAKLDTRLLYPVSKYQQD

In test [5] the target is T5, p85β cSH2 (603–712) (mouse, UniProt O08908 603-712).
T5 construct: PI3K regulatory subunit p85β, mouse, C-terminal SH2 domain, residues 603-712; also called cSH2 domain of p85β; source: E. coli, purified (glutathione-agarose, HRV 3C cleavage, S75 size exclusion)
T5 sequence (looked up): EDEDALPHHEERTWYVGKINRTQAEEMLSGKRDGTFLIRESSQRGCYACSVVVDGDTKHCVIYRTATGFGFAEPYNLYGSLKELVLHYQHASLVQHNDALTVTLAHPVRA

T1 sequence (P27986 325-430): as the sequence (P27986 325-430 R358M) above, with M34R counted along it

B1: [5-FAM]-TEDQ-[pY]-SLMEDE, phosphorylated peptide based on p85β (peptide)
peptide: 5FAM-TEDQ[pY]SLMEDE
notes: also called β peptide; p85β (pYSLM) peptide; source: synthetic peptide; bought: Cambridge Research Biochemicals
Broadly, the Kd is a measure of binding affinity in units of concentration. Low values mean tighter binding, high ones weaker binding. Take B1: the dissociation constant (Kd) amounted to 82 nM in test [1], 656 nM in test [2], 2900 nM in test [3] and 0.052 µM in test [4].

B2: [5-FAM]-TEDQ-[pY]-SLVEDE, phosphorylated peptide based on p85α (peptide)
peptide: 5FAM-TEDQ[pY]SLVEDE
notes: also called α peptide; p85α (pYSLV) peptide; source: synthetic peptide; bought: Biomatik
As for B2, the Kd in test [1] was found to be 2400 nM; in test [2], 84000 nM; in test [4], 9 µM.

B3: [5-FAM]-SD-[pY]-MNMTP, CD28 peptide (peptide)
peptide: 5FAM-SD[pY]MNMTP
notes: Known p85 SH2 target peptide from CD28; also called control peptide from CD28; source: synthetic peptide; bought: Biomatik
Consider B3, for which the Kd in test [2] came to 43 nM; in test [5], 100 nM.
